# Assay results taken from patent US20020019349A1.
# Target: relaxin binding sites on primary human fetal cardiac cells (receptor not named) (human)
# Test: competitive binding on cultured cells: 100 µM 32P-relaxin, 2 hr at room temperature, with or without 1000-fold excess of unlabeled relaxin; (total - nonspecific)/total x 100
substance,measurement,value
32P-labeled relaxin (from UniProt P04090 162-185; P04090 25-53) (ligand),percent specific binding,40 to 55%
